Test results as given in patent US20210388110A1 (published 2021).

What follows are binders tested against T1, soluble human CD3ε chain (human, UniProt P07766 23-126, limits assumed) (assay: SPR (Biacore)).
T1 construct: the text says soluble human CD3ε chain; also called human CD3 epsilon chain
T1 sequence (P07766 23-126 limits assumed): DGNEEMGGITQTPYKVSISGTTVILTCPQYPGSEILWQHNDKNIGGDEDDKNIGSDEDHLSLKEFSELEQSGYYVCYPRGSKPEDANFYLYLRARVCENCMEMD

Row | Binder | Kd [nM]
1 | TR01H040-E22Hh/none-Hi-Kn010G3/L0220-k0 (antibody, human IgG1, kappa, L234A L235A, N297A, single-arm) heavy: QVQLVESGGGLVQPGRSLRLSCAASGFTFSNAWMHWVRQAPGKGLEWVAQIKDKSQNYATYYAESVKGRFTISRADSKNSIYLQMNSLKTEDTAVYYCRYVHYSASYGVDAWGQGTTVTVSSASTKGPSVFPLAPSSKSTSGGTAALGCLVKDYFPEPVTVSWNSGALTSGVHTFPAVLQSSGLYSLSSVVTVPSSSLGTQTYICNVNHKPSNTKVDKKVEPKSCDKTHTCPPCPAPEAAGGPSVFLFPPKPKDTLMISRTPEVTCVVVDVSHEDPEVKFNWYVDGVEVHNAKTKPREEQYASTYRVVSVLTVLHQDWLNGKEYKCKVSNKALPAPIEKTISKAKGQPREPQVYTLPPSRCELTKNQVSLSCAVKGFYPSDIAVEWESNGQPENNYKTTPPVLDSDGSFFLVSKLTVDKSRWQQGNVFSCSVMHEALHNHYTQKSLSLSPDYKDDDDK EPKSSDKTHTCPPCPAPELLGGPSVFLFPPKPKDTLMISRTPEVTCVVVDVSHEDPEVKFNWYVDGVEVHNAKTKPREEQYNSTYRVVSVLTVLHQDWLNGKEYKCKVSNKALPAPIEKTISKAKGQPREPQVCTLPPSRDELTKNQVSLWCLVKGFYPSDIAVEWESNGQPENNYKTTPPVLDSDGSFFLYSKLTVDKSRWQQGNVFSCSVMHEALHNRYTQKSLSLSP light: DIVMTQSPLSLPVTPGEPASISCRSSQPLVHSNRNTYLHWYQQKPGQAPRLLIYKVSNRFRGVPDRFSGSGSGTDFTLKISRVEAEDVGVYYCYQGTQVPYTFGQGTKLEIKRTVAAPSVFIFPPSDEQLKSGTASVVCLLNNFYPREAKVQWKVDNALQSGNSQESVTEQDSKDSTYSLSSTLTLSKADYEKHKVYACEVTHQGLSSPVTKSFNRGEC | 9.15
2 | TR01H040-E22Hh/none-Hi-Kn010G3/L0224-k0 (antibody, human IgG1, kappa, L234A L235A, N297A, single-arm) heavy: QVQLVESGGGLVQPGRSLRLSCAASGFTFSNAWMHWVRQAPGKGLEWVAQIKDKSQNYATYYAESVKGRFTISRADSKNSIYLQMNSLKTEDTAVYYCRYVHYSASYGVDAWGQGTTVTVSSASTKGPSVFPLAPSSKSTSGGTAALGCLVKDYFPEPVTVSWNSGALTSGVHTFPAVLQSSGLYSLSSVVTVPSSSLGTQTYICNVNHKPSNTKVDKKVEPKSCDKTHTCPPCPAPEAAGGPSVFLFPPKPKDTLMISRTPEVTCVVVDVSHEDPEVKFNWYVDGVEVHNAKTKPREEQYASTYRVVSVLTVLHQDWLNGKEYKCKVSNKALPAPIEKTISKAKGQPREPQVYTLPPSRCELTKNQVSLSCAVKGFYPSDIAVEWESNGQPENNYKTTPPVLDSDGSFFLVSKLTVDKSRWQQGNVFSCSVMHEALHNHYTQKSLSLSPDYKDDDDK EPKSSDKTHTCPPCPAPELLGGPSVFLFPPKPKDTLMISRTPEVTCVVVDVSHEDPEVKFNWYVDGVEVHNAKTKPREEQYNSTYRVVSVLTVLHQDWLNGKEYKCKVSNKALPAPIEKTISKAKGQPREPQVCTLPPSRDELTKNQVSLWCLVKGFYPSDIAVEWESNGQPENNYKTTPPVLDSDGSFFLYSKLTVDKSRWQQGNVFSCSVMHEALHNRYTQKSLSLSP light: DIVMTQSPLSLPVTPGEPASISCRSSQSPVHSNRNTYIHWYQQKPGQAPRLLIYKVSNRFPGVPDRFSGSGSGTDFTLKISRVEAEDVGVYYCYQGTQVPYTFGQGTKLEIKRTVAAPSVFIFPPSDEQLKSGTASVVCLLNNFYPREAKVQWKVDNALQSGNSQESVTEQDSKDSTYSLSSTLTLSKADYEKHKVYACEVTHQGLSSPVTKSFNRGEC | 5.06
3 | TR01H040-E22Hh/none-Hi-Kn010G3/L0223-k0 (antibody, human IgG1, kappa, L234A L235A, N297A, single-arm) heavy: QVQLVESGGGLVQPGRSLRLSCAASGFTFSNAWMHWVRQAPGKGLEWVAQIKDKSQNYATYYAESVKGRFTISRADSKNSIYLQMNSLKTEDTAVYYCRYVHYSASYGVDAWGQGTTVTVSSASTKGPSVFPLAPSSKSTSGGTAALGCLVKDYFPEPVTVSWNSGALTSGVHTFPAVLQSSGLYSLSSVVTVPSSSLGTQTYICNVNHKPSNTKVDKKVEPKSCDKTHTCPPCPAPEAAGGPSVFLFPPKPKDTLMISRTPEVTCVVVDVSHEDPEVKFNWYVDGVEVHNAKTKPREEQYASTYRVVSVLTVLHQDWLNGKEYKCKVSNKALPAPIEKTISKAKGQPREPQVYTLPPSRCELTKNQVSLSCAVKGFYPSDIAVEWESNGQPENNYKTTPPVLDSDGSFFLVSKLTVDKSRWQQGNVFSCSVMHEALHNHYTQKSLSLSPDYKDDDDK EPKSSDKTHTCPPCPAPELLGGPSVFLFPPKPKDTLMISRTPEVTCVVVDVSHEDPEVKFNWYVDGVEVHNAKTKPREEQYNSTYRVVSVLTVLHQDWLNGKEYKCKVSNKALPAPIEKTISKAKGQPREPQVCTLPPSRDELTKNQVSLWCLVKGFYPSDIAVEWESNGQPENNYKTTPPVLDSDGSFFLYSKLTVDKSRWQQGNVFSCSVMHEALHNRYTQKSLSLSP light: DIVMTQSPLSLPVTPGEPASISCRSSQSPVHSNRNTYIHWYQQKPGQAPRLLIYKVSNRLSGVPDRFSGSGSGTDFTLKISRVEAEDVGVYYCYQGTQVPYTFGQGTKLEIKRTVAAPSVFIFPPSDEQLKSGTASVVCLLNNFYPREAKVQWKVDNALQSGNSQESVTEQDSKDSTYSLSSTLTLSKADYEKHKVYACEVTHQGLSSPVTKSFNRGEC | 8.15
4 | TR01H040-E22Hh/none-Hi-Kn010G3/L0222-k0 (antibody, human IgG1, kappa, L234A L235A, N297A, single-arm) heavy: QVQLVESGGGLVQPGRSLRLSCAASGFTFSNAWMHWVRQAPGKGLEWVAQIKDKSQNYATYYAESVKGRFTISRADSKNSIYLQMNSLKTEDTAVYYCRYVHYSASYGVDAWGQGTTVTVSSASTKGPSVFPLAPSSKSTSGGTAALGCLVKDYFPEPVTVSWNSGALTSGVHTFPAVLQSSGLYSLSSVVTVPSSSLGTQTYICNVNHKPSNTKVDKKVEPKSCDKTHTCPPCPAPEAAGGPSVFLFPPKPKDTLMISRTPEVTCVVVDVSHEDPEVKFNWYVDGVEVHNAKTKPREEQYASTYRVVSVLTVLHQDWLNGKEYKCKVSNKALPAPIEKTISKAKGQPREPQVYTLPPSRCELTKNQVSLSCAVKGFYPSDIAVEWESNGQPENNYKTTPPVLDSDGSFFLVSKLTVDKSRWQQGNVFSCSVMHEALHNHYTQKSLSLSPDYKDDDDK EPKSSDKTHTCPPCPAPELLGGPSVFLFPPKPKDTLMISRTPEVTCVVVDVSHEDPEVKFNWYVDGVEVHNAKTKPREEQYNSTYRVVSVLTVLHQDWLNGKEYKCKVSNKALPAPIEKTISKAKGQPREPQVCTLPPSRDELTKNQVSLWCLVKGFYPSDIAVEWESNGQPENNYKTTPPVLDSDGSFFLYSKLTVDKSRWQQGNVFSCSVMHEALHNRYTQKSLSLSP light: DIVMTQSPLSLPVTPGEPASISCRSSQSPVHSNRNTYIQWYQQKPGQAPRLLIYKVSNRFSGVPDRFSGSGSGTDFTLKISRVEAEDVGVYYCYQGTQVPYTFGQGTKLEIKRTVAAPSVFIFPPSDEQLKSGTASVVCLLNNFYPREAKVQWKVDNALQSGNSQESVTEQDSKDSTYSLSSTLTLSKADYEKHKVYACEVTHQGLSSPVTKSFNRGEC | 46.5
5 | TR01H040-E22Hh/none-Hi-Kn010G3/L0228-k0 (antibody, human IgG1, kappa, L234A L235A, N297A, single-arm) heavy: QVQLVESGGGLVQPGRSLRLSCAASGFTFSNAWMHWVRQAPGKGLEWVAQIKDKSQNYATYYAESVKGRFTISRADSKNSIYLQMNSLKTEDTAVYYCRYVHYSASYGVDAWGQGTTVTVSSASTKGPSVFPLAPSSKSTSGGTAALGCLVKDYFPEPVTVSWNSGALTSGVHTFPAVLQSSGLYSLSSVVTVPSSSLGTQTYICNVNHKPSNTKVDKKVEPKSCDKTHTCPPCPAPEAAGGPSVFLFPPKPKDTLMISRTPEVTCVVVDVSHEDPEVKFNWYVDGVEVHNAKTKPREEQYASTYRVVSVLTVLHQDWLNGKEYKCKVSNKALPAPIEKTISKAKGQPREPQVYTLPPSRCELTKNQVSLSCAVKGFYPSDIAVEWESNGQPENNYKTTPPVLDSDGSFFLVSKLTVDKSRWQQGNVFSCSVMHEALHNHYTQKSLSLSPDYKDDDDK EPKSSDKTHTCPPCPAPELLGGPSVFLFPPKPKDTLMISRTPEVTCVVVDVSHEDPEVKFNWYVDGVEVHNAKTKPREEQYNSTYRVVSVLTVLHQDWLNGKEYKCKVSNKALPAPIEKTISKAKGQPREPQVCTLPPSRDELTKNQVSLWCLVKGFYPSDIAVEWESNGQPENNYKTTPPVLDSDGSFFLYSKLTVDKSRWQQGNVFSCSVMHEALHNRYTQKSLSLSP light: DIVMTQSPLSLPVTPGEPASISCRSSQSPVHSNRNTYIHWYQQKPGQAPRLLIYKVSNRFSGVPDRFSGSGSGTDFTLKISRVEAEDVGVYYCVQGTQVPYTFGQGTKLEIKRTVAAPSVFIFPPSDEQLKSGTASVVCLLNNFYPREAKVQWKVDNALQSGNSQESVTEQDSKDSTYSLSSTLTLSKADYEKHKVYACEVTHQGLSSPVTKSFNRGEC | 16
6 | TR01H040-E22Hh/none-Hi-Kn010G3/L0231-k0 (antibody, human IgG1, kappa, L234A L235A, N297A, single-arm) heavy: QVQLVESGGGLVQPGRSLRLSCAASGFTFSNAWMHWVRQAPGKGLEWVAQIKDKSQNYATYYAESVKGRFTISRADSKNSIYLQMNSLKTEDTAVYYCRYVHYSASYGVDAWGQGTTVTVSSASTKGPSVFPLAPSSKSTSGGTAALGCLVKDYFPEPVTVSWNSGALTSGVHTFPAVLQSSGLYSLSSVVTVPSSSLGTQTYICNVNHKPSNTKVDKKVEPKSCDKTHTCPPCPAPEAAGGPSVFLFPPKPKDTLMISRTPEVTCVVVDVSHEDPEVKFNWYVDGVEVHNAKTKPREEQYASTYRVVSVLTVLHQDWLNGKEYKCKVSNKALPAPIEKTISKAKGQPREPQVYTLPPSRCELTKNQVSLSCAVKGFYPSDIAVEWESNGQPENNYKTTPPVLDSDGSFFLVSKLTVDKSRWQQGNVFSCSVMHEALHNHYTQKSLSLSPDYKDDDDK EPKSSDKTHTCPPCPAPELLGGPSVFLFPPKPKDTLMISRTPEVTCVVVDVSHEDPEVKFNWYVDGVEVHNAKTKPREEQYNSTYRVVSVLTVLHQDWLNGKEYKCKVSNKALPAPIEKTISKAKGQPREPQVCTLPPSRDELTKNQVSLWCLVKGFYPSDIAVEWESNGQPENNYKTTPPVLDSDGSFFLYSKLTVDKSRWQQGNVFSCSVMHEALHNRYTQKSLSLSP light: DIVMTQSPLSLPVTPGEPASISCRSSQSPVHSNRNTYIHWYQQKPGQAPRLLIYKVSNRFSGVPDRFSGSGSGTDFTLKISRVEAEDVGVYYCYQGTQWPYTFGQGTKLEIKRTVAAPSVFIFPPSDEQLKSGTASVVCLLNNFYPREAKVQWKVDNALQSGNSQESVTEQDSKDSTYSLSSTLTLSKADYEKHKVYACEVTHQGLSSPVTKSFNRGEC | 7.75
